The DeepSol protein solubility set

Assay: soluble on expression in E. coli; label from the status in PepcDB or PDB records

Row | Sequence | soluble on expression in E. coli
1 | MSIINDENGRGYKVHLCKTNIAQNNNKFYDMELLDEGGDFIVKLINGRIGYRGVTQLKDFDDLDRAKKFFESKFYEKTHLHWEERDDEPVPNKYAVVELATNARQTEKEVKKEEPEPEPKVDEKNTRGRKKRGIVKEKKEIKKEEEPVEEVNEKLKELMKCICDEDVHLGLLKQLKFNEAFGRPIDCLSLAQLTTGYEILSKIEESIGGKSARRSTRGRPRVADRVLAVKSDGPSLHDINKYYSLIPHSFGFCVPPKIDSHAKIQAERELLDALKGSIEASLELKDLKKTASSKDIYQRLYERLPCHLEPVSEEIAGKIGDCLAMRGPTHCYKLSLIDAFELKDPNEIPTEAPVEVQEVPKKRGRKSTKTAAPTVPPPTTKRLLWHGTRVTNVFSILMNGLQFPVGDRCGLMFGNGVYFANVPTKSANYCCPEASKRVFMLLCEVETANPLVLYESEIDADEKMEKAKKTSVYAAGKHTPRDTVEINGIPAFKSNLETIEEETRLLYDEYVMFNKEHFKIKYVVEVKVDRLTAKEMMA | not soluble
2 | MSEPEEQQPDIHTTAGKLADLRRRIEEATHAGSARAVEKQHAKGKLTARERIDLLLDEGSFVELDEFARHRSTNFGLDANRPYGDGVVTGYGTVDGRPVAVFSQDFTVFGGALGEVYGQKIVKVMDFALKTGCPVVGINDSGGARIQEGVASLGAYGEIFRRNTHASGVIPQISLVVGPCAGGAVYSPAITDFTVMVDQTSHMFITGPDVIKTVTGEDVGFEELGGARTHNSTSGVAHHMAGDEKDAVEYVKQLLSYLPSNNLSEPPAFPEEADLAVTDEDAELDTIVPDSANQPYDMHSVIEHVLDDAEFFETQPLFAPNILTGFGRVEGRPVGIVANQPMQFAGCLDITASEKAARFVRTCDAFNVPVLTFVDVPGFLPGVDQEHDGIIRRGAKLIFAYAEATVPLITVITRKAFGGAYLVMGSKHLGADLNLAWPTAQIAVMGAQGAVNILHRRTIADAGDDAEATRARLIQEYEDALLNPYTAAERGYVDAVIMPSDTRRHIVRGLRQLRTKRESLPPKKHGNIPL | soluble
3 | MAHHHHHHMDKKRSIVKKPERGSFLLDHNSECTPIKNDYLKCLKEHNNDHVSCREYSKEYFICRMDKNLLERQSLNDLGFSENETNHESRIKHFKDVYSYNVYNETMESFPKGRALKRTDTASGAVFVEEKLTQGKRDNKADMKPARGDDFLLLNLRNDKEGEQKINGKVFEITQEKKIAVKRKEEEGYLAGKEYIKTLVEKKKRHPLFSYNIFKSSNT | soluble
4 | IQQANEEAVTRIIQSKPILVGFDKAINVMPDMTETTILHAGPPITYENMCGPMKGAVQGALVFEGLAKDLADADRVARSGAITFSPCHEHDAVGSMAGVTSPNMYVHIIKNETYGNTAFTNLSEQLAKVLRFGANDQSVVDRLIWMRDVLGPLLHDAMTFCPEGIDLRLMLSQALHMGDECHNRNVAGSTLLVQALTPYMVQTDFSREQLKEVFEFLGSSDYFSGPTWMGAAKCALDAGHNVENSTIVTTMCRNGVEFGIRVSGIGGNHWFTGPAQRVIGPMFAGYTQEDAGLDMGDSAITETYGVGGFAMAAAPAIVPLVGGTVAEALNYSKEMLEITTKENPNVTIPVLDFMGIPTGIDVLKVLETGMLPVINTAIAHKEPGIGMIGAGLTNPPANVFNEALKALVATIN | not soluble
5 | MGSDKIHHHHHHMKTCWQILEIESTTQIDIIRQAYLARLPLCHPETDPQGFKALRQAYEEALRLAVNPVEEADDEEKDATAEHEILRAFRTLLDSESDRFQPSAWQKFIQQLNTWNMEDVDQLRWPLCAIAIEARYLSLNCASLLAERLNWHSFNDSEGMDEEEREAFLEAIQAGDCFDFLSLLEYPVALQNQTVEYYFALERCCRYHPDYVTAFLAMEGPWFIPDDAKLHRKLLRWYSSVQTGMVELIPVAKQWQAEEPESEDARYYQCAQRLYCGEGESLLADLGAYWESYPSTQADNLLLQWSKRHCPDYFALLVMVIEARSMVDAQGQPLKYVPGESARTRLLWAEILHSGKLSPLGQSFIESLFFKRKAWAWWKSRVGSETEEDSPLLDLYRVAEQVVLEAFPKQEMLARLNTRLEGGDAHPLEAIITRMLLTKVKLEPEDEDVDEPTPENHEEKNDEGEKPQSITSIIKISLTVLVIGYALGKIAMLFS | not soluble
6 | MSLTGSSSITRTCAVIFSSGFRFMDLLHAVPYAALWHGRFEHPVLRIACILSIAAGNRVPICFESITRRIRPMTLHRPAPHPVFSLAETSGPVLGDLPGWKLSDLYPSGDSPEYKRDLEKAASMAAAFEAKWKDKLESAAKAKGEDGIGAALKDYEALDDLIGRIGSFAGLTYFSDTSNPANGKLYGDAQAKLTEISAHLLFFTLELNRIDDAVMDACMANDAAAGHYRPWLVDLRKDKPHQLDDQLEQLFLEKSMTSAAAFNRLFDETMADLRFDIDGASLSLEVTLNMLQEPEPETRRKAAEALSATFKDNLRVFTLITNTLAKDKDISDRWRNFEDIADSRHLANRVERDVVDALAAAVKKAYPRLSHRYYAMKAKWLGMEQMNYWDRNAPLPDTSNTIIPWDEAKDTVLSAYGNFAPEMADIARRFFDEEWIDAPARPGKAPGAFAHPTVPSAHPYVLVNYLGKPRDVMTLAHELGHGVHQVLAGQQGALMCATPLTLAETASVFGEMLTFRKLLDDTKDIRERKAMLARKVEDMINTVVRQIAFYEFERKLHTARKEGELTSEQIGELWLSVQAESLGPAIRISEGYETWWTYIPHFIHSPFYVYAYAFGDCLVNSLYAVYQKAEAGFQEKYFELLKAGGTKHHSELLKPFGLDATDPSFWDKGLSMIEGLIDELEELDRKQAEGHHHHHH | soluble
7 | MSLAKISKIEAQKRKGRYNIYLDGKYAFPVAESVLIQFRLMKGTELDEKQIAAIATADQQAKAYSRMLDYLSYQMRTESDIVKKLKEIDTPEEFVEPILKKLRGQQLIDDHAYAASYVRTMINTDLKGPGIIRQHLRQKGIGESDIDDALTQFTPEVQAELAKKLALKLFRRYRNQPERRREQKVQQGLTTKGFSSSVYEMIKDEVVPQPDLEQENDLLAKEAAKQWRRVRRYQGYEREQHFKQTMYRKGFDLDDVQSWLDAQDEGHHHHHH | soluble
8 | GMEQQHPTIHTLKIETEFFKAVKERRKTFEIRKNDRNFQVGDILILEEYMNGMYLDDECEAEVIYITDYAQREGYVVLGIELH | soluble
9 | NAMYTITDIAPTDAEFIALIAALDAWQETLYPAESNHLLDLSQLPPQTVIALAIRSPQGEAVGCGAIVLSEEGFGEMKRVYIDPQHRGQQLGEKLLAALEAKARQRDCHTLRLETGIHQHAAIALYTRNGYQTRCAFAPYQPDPLSVFMEKPLFADLRSAAL | soluble
10 | MTSSLSLHSSFVPSFADLSDRGLISKNSPTSVSISKVPTWEKKQISNRNSFKLNCVMEKSVDGQTHSTVNNTTDSLNTMNIKEEASVSTLLVNLDNKFDPFDAMSTPLYQTATFKQPSAIENGPYDYTRSGNPTRDALESLLAKLDKADRAFCFTSGMAALSAVTHLIKNGEEIVAGDDVYGGSDRLLSQVVPRSGVVVKRVNTTKLDEVAAAIGPQTKLVWLESPTNPRQQISDIRKISEMAHAQGALVLVDNSIMSPVLSRPLELGADIVMHSATKFIAGHSDVMAGVLAVKGEKLAKEVYFLQNSEGSGLAPFDCWLCLRGIKTMALRIEKQQENARKIAMYLSSHPRVKKVYYAGLPDHPGHHLHFSQAKGAGSVFSFITGSVALSKHLVETTKYFSIAVSFGSVKSLISMPCFMSHASIPAEVREARGLTEDLVRISAGIEDVDDLISDLDIAFKTFPL | soluble
11 | MSESSRIREKYPDRIPVIVEKAGQSDVPDIDKKKYLVPADLTVGQFVYVVRKRIKLGAEKAIFVFVKNTLPPTAALMSAIYEEHKDEDGFLYMTYSGENTFGSLTVA | soluble
12 | MGSDKIHHHHHHMELVIRDIRKRFQETEVLRGASYRFYSGKITGVLGRNGAGKTTLFNILYGDLAADNGTICLLKDNHEYPLTDKDIGIVYSENYLPEFLTGYEFVKFYMDLHPSDDLMTIDDYLDFMEIGQTERHRIIKGYSDGMKSKLSLICLMISKPKVILLDEPLTAVDVVSSIAIKRLLLELSEDHIIILSTHIMALAEDLCDIVAVLDKGKLQTLDIDRKHEQFEERLLQVLKGDEYDK | not soluble
13 | MGSDKIHHHHHHMMRVEHLAYQFSRNGQPFFKDVSFQLKSPGVNFLIGQNGAGKTTLADIITGLRPAQGELDLPKAAIYLNQQLPLLSSIRVRDVAQLVLGIEHGRLRLTTEQLQQLIDTQAYQFLAPLWDQHYGQLSGGQRKLVQLLLFLQVDRELIVLDEPTAAVDRENVQLLFQVMQAHPERTYLMITHDVRDLHAFTDYQVLWLNDRQVTTLSKRTFEAASAQADFVALFKTQ | not soluble
14 | MGSDKIHHHHHHMKQGIEFIKFNPTQNMTILVETNDPIGEYKHIAEKIMSYDSVYAEQVGFIEKPLNRQAAAHLEMAGGEFCGNACMALAALIASEKGLRPTELMEIVLEVSGTDNLVMCQVERTLDEFHCQVTMPLPKQIEQKIVKYDGSEMNLIIVRYQEFIHIVIEVDDFNKIVREKAQSLAKLLGVTLGTNLIGILLYKSNTSELAPLIFVPDLDSMIWERGCGSGTASLGAYLAWKNKKEIVAKIKQPGGTIQVIATCEEEKLTSLKIEGSVSIVARGKAFIDV | not soluble
15 | MIKKVIKRDGREKDFDILRIEHAIKKAEKSIEVNECWDDDALCDILMKIDETNLKKIEIEKVQDIVIDVLNKYNKNVAKAYSDYRKERTKIRQDKSNLMKIIDKIGVETDRDNANVGNNFSSKLLRIASESNKVHNLLK | not soluble
16 | MGLFTTRQLLGYTEQKVKFNPLFLSLFFRRTVTFPTQEVMLDKITGKTPIAAYVSPVVGGKVLRNRGGETRVLRPGYVKPKHEVNYAQVVERLPGEDPARLNDPAYRRLRILTDNLKQEEKAIVQVEEMQAVSAVLNGKYTMQGEQFDTVEVDFGRSAGNNIIQATGKKWSEQDRETFDPTYDLDMYCDQASGLINIAVMDGKVWRLLNGFKLFREKLDTRRGSNSQLETAVKDLGAVVSFKGYYGDLAIVVAKTSYVADNGTEKRYLPEGTLVLGNTAAEGIRCYGAIQDSQALAEGIVAATRYPKHWLTVGDPANEYTMTQSAPLMVLPDPDEFVIVTVG | not soluble
17 | PHANGLEQISGGDTNMFRLAKEQGYETYFYSAQAENEMAILNLIGKKWIDHLIQPTQLGYGNGDNMPDEKLLPLFDKINLQQGKHFIVLHQRGSHAPYGALLQPQDKVFGEADIVDKYDNTIHKTDQMIQTVFEQLQKQPDGNWLFAYTSDHGQYVRQDIYNQGTVQPDSYLVPLVLYSPDKAVQQAANQAFAPCEIAFHQQLSTFLIHTLGYDMPVSGCREGSVTGNLITGDAGSLNIRDGKAEYVYPQ | not soluble
